Measurements taken from the supplement of paper PMC10724198.
± gives the standard deviation of the averaged measurements.

Test system: Saccharomyces cerevisiae
Assay: protein stability index of tFT-peptide fusion (C-terminal peptide) (PSI (0-1 scale)); higher = more stable (slower turnover)
Conditions: genetic background: wild type; temperature: 30 C
Experimental: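 Multiplexed protein stability (MPS) profiling in S. cerevisiae. Random 12-aa peptides (tFT-X12 library) are fused to the C-terminus of a sfGFP-mCherry tandem fluorescent timer, after mCherry and a GGGS linker. Cells are FACS-sorted into 8 mCherry/sfGFP bins and deep-sequenced. The protein stability index (PSI) is the read-weighted bin average, scaled from 0 (unstable) to 1 (stable). Only peptides with >10 reads are reported; cells were grown at 30 °C in SC-His with glucose.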
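Also: PSI is a weighted mean of sequencing reads over stability bins, variants kept only with over 10 reads, mCherry proximal and sfGFP distal, peptide attached via GGGS linker.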

Sequence | protein stability index
AAFHSSSAFFFN | 0.718 ± 0.019
PPPPPLPPPPTP | 0.652 ± 0.058
PSSPHTAIRHPL | 0.671 ± 0.02
GYRGMERGEGGG | 0.723 ± 0.068
GSGYRPRVESWI | 0.681 ± 0.0079
AWRVVRIFFCGG | 0.72 ± 0.15
FCSPPTLPPSPS | 0.732 ± 0.024
LRMWFGLMRPDA | 0.66 ± 0.034
TLIEWSAKGCRR | 0.693 ± 0.047
KGGCPTASARVL | 0.5735 ± 0.0011
VIACLCGGVMWV | 0.577 ± 0.0008
WVTKGLYIMSTK | 0.663 ± 0.11
VTMQEKTCQLEA | 0.705 ± 0.1
GCRGVWGWVGRG | 0.74 ± 0.084
APVGLTFNSSLL | 0.7107 ± 0.0032
GTDLKGFPFLTF | 0.688 ± 0.014
PSPYFPVPLLPS | 0.701 ± 0.028
FLLKKVLCINWQ | 0.545 ± 0.0028
PPPPPPSPLTLP | 0.775 ± 0.086
CDGGCSWGGLMG | 0.795 ± 0.071
SVALGRQGTPNI | 0.6506 ± 0.0064
VFYVGGGAVVRG | 0.689 ± 0.023
CLGRDVENRDAW | 0.785 ± 0.078
WLGAYVRAWSVA | 0.533 ± 0.0011
LPSPISLSPPLP | 0.652 ± 0.051

Sequence | protein stability index
PPRALPPPLPLP | 0.72 ± 0.083
PTSLPPLSRPPP | 0.723 ± 0.029
VSGASHLCQYIK | 0.724 ± 0.072
SRRGIRSSSAAR | 0.714 ± 0.065
DLSCCVFLCLFF | 0.513 ± 0.044
PPPSPFLPSPFR | 0.7066 ± 0.0061
VDGRIYIGIISR | 0.677 ± 0.032
LVGGRGSRSVEA | 0.739 ± 0.12
GNVRRVYMDYQG | 0.735 ± 0.039
KSKQKNKTQVKN | 0.66 ± 0.023
CIQRYSTAHPYH | 0.679 ± 0.06
ATLGTVTLAFSV | 0.634 ± 0.044
DDGRVSLGEQSG | 0.673 ± 0.036
SPRLSSCPPAGF | 0.749 ± 0.017
PEGCQDGASPAE | 0.759 ± 0.021
VSEFTSHQYDSE | 0.746 ± 0.048
PAPPPPPPGTAA | 0.641 ± 0.061
RIKTRDVSGNYC | 0.708 ± 0.026
AEFMRGVFKVSC | 0.6816 ± 0.0036
LFRRPSVVFLFV | 0.496 ± 0.062
IKKKKKVRYIRI | 0.705 ± 0.06
NIYDFQPPVSGH | 0.77 ± 0.052
HPPPPAAKVAPV | 0.629 ± 0.048
PPRPAPTSFKRG | 0.718 ± 0.037
NEGYLIQGVSMG | 0.706 ± 0.0084

Sequence | protein stability index
IGGLAGFGSALT | 0.759 ± 0.12
AGYENKAENKSV | 0.656 ± 0.011
GSDWGYDSGLKG | 0.765 ± 0.044
LAARRHRACPPR | 0.67 ± 0.014
APHPYPPTPPAP | 0.725 ± 0.014
KKQRKRTKRKRK | 0.693 ± 0.048
RAPVRPSEYTRP | 0.681 ± 0.028
NIRETVILRIMQ | 0.606 ± 0.048
PLLPPLPPPLPP | 0.692 ± 0.1
GYTSRGISFLRA | 0.698 ± 0.042
KHTNWGKQLIMT | 0.5631 ± 0.0016
GQGEPRRVWGVV | 0.6746 ± 0.005
GSRGGPVGEAAG | 0.665 ± 0.012
LDQQKSCHLIFL | 0.663 ± 0.033
VRYGSHRNMSLL | 0.819 ± 0.053
APPARGTGRASL | 0.738 ± 0.017
SRFLTPLPLAMF | 0.592 ± 0.018
GGRGVEVAGKGW | 0.686 ± 0.08
PPLSGNLPCFRF | 0.713 ± 0.03
PPSGSFLFSVHP | 0.734 ± 0.016
LRIGVEAGRAHR | 0.648 ± 0.033
KRQKENRKNKKI | 0.704 ± 0.019
KFKGIKEINNGN | 0.633 ± 0.074
IFCCFFPRFPVF | 0.642 ± 0.013
AVYIEFLYPRRL | 0.644 ± 0.039

Sequence | protein stability index
YQFGFLPAFPAC | 0.7 ± 0.013
PLLPLAASPPPP | 0.683 ± 0.051
PPVLHSSEPPDS | 0.707 ± 0.024
VSVIPIVISLSL | 0.528 ± 0.036
PSLLFHPAPFFP | 0.756 ± 0.085
WSPVPVPPPLPT | 0.722 ± 0.083
ALSLARVSSPLF | 0.707 ± 0.06
RALITRAPSKER | 0.795 ± 0.084
GAPWPLAVVAGP | 0.5995 ± 0.0013
KKLSSRTQGLHG | 0.746 ± 0.059
SCFVAWAFCGWY | 0.554 ± 0.0084
GVGGGGRLMCGV | 0.667 ± 0.04
RKKRNKDARQQN | 0.679 ± 0.057
AGQGSISCWSKD | 0.707 ± 0.045
IASNAENCDVGV | 0.695 ± 0.11
PSPLALRTPSFS | 0.692 ± 0.02
WITAYFPLHSSE | 0.714 ± 0.036
WWEGSFRGGAVR | 0.592 ± 0.094
TGRGSMSNVRVK | 0.706 ± 0.06
SLQAYASALIHV | 0.687 ± 0.0098
FAVLGGGVGGGG | 0.683 ± 0.043
QERKKKRENKKE | 0.63688 ± 5.9e-05
VRFVVVRRFRLP | 0.649 ± 0.0076
